# Measurements as given in patent publication US20210246166A1 (Bayer, published 2021).
# Numbered stars: 1 amine (or outer) side, 2 acyl side, 3 side chain; on linkers, the order of the positions; unused ones are H or OH. Bridge positions count the residues as written; N and C are the ends. Square brackets hold non-standard residues; d marks the D form. Ends that are not written are not given here. Phe(3-COOH) = N[C@@H](Cc1cccc(C(=O)O)c1)C(=O)O; Nip(3R) = O=C([C@@H]1CCCN([*:1])C1)[*:2]; Oic = O=C(O)[C@@H]1C[C@@H]2CCCC[C@@H]2N1; tBuAla = CC(C)(C)C[C@H](N)C(=O)O; PEG4 = NCCOCCOCCOCCOCCC(=O)O; Pen = CC(C)(S)[C@H](N)C(=O)O; PEG3 = NCCOCCOCCOCCC(=O)O; Orn = NCCC[C@H](N)C(=O)O; Sar = CNCC(=O)O
# T1: Recombinant human MASP1 enzyme (fragment corresponding to amino acids 297-699, C-terminal His Tag) (human, UniProt P48740 297-699)
# T1 sequence: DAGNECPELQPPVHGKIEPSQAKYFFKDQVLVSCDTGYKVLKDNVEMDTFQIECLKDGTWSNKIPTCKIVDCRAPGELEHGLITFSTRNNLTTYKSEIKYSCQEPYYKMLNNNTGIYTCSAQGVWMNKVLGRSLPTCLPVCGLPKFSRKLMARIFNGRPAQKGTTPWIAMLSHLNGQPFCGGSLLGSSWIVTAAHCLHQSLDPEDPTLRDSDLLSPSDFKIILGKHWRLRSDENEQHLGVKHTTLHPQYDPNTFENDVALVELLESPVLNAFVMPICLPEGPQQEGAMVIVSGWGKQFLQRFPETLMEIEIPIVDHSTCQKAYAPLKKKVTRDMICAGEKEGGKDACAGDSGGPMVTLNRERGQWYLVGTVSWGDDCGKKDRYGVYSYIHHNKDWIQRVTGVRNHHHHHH
# B1: ((N-Me)G)-IC+SRSLP-(Oic)-I-(Pen)+IPR-OH (peptide)
# peptide: [Sar]ICSRSLP[Oic]I[Pen]IPR-OH
# modifications: disulfide 3-11; N-terminus assumed
# SMILES: CC[C@H](C)[C@H](NC(=O)CNC)C(=O)N[C@H]1CSSC(C)(C)[C@@H](C(=O)N[C@H](C(=O)N2CCC[C@H]2C(=O)N[C@@H](CCCNC(=N)N)C(=O)O)[C@@H](C)CC)NC(=O)[C@H]([C@@H](C)CC)NC(=O)[C@@H]2C[C@@H]3CCCC[C@@H]3N2C(=O)[C@@H]2CCCN2C(=O)[C@H](CC(C)C)NC(=O)[C@H](CO)NC(=O)[C@H](CCCNC(=N)N)NC(=O)[C@H](CO)NC1=O
# B2: ((N-Me)G)-IC+SRSLP-(Oic)-I-(Pen)+IPD-(PEG2(13 atoms))-OH (peptide)
# peptide: [Sar]ICSRSLP[Oic]I[Pen]IPD[PEG3]-OH
# modifications: disulfide 3-11; N-terminus assumed
# SMILES: CC[C@H](C)[C@H](NC(=O)CNC)C(=O)N[C@H]1CSSC(C)(C)[C@@H](C(=O)N[C@H](C(=O)N2CCC[C@H]2C(=O)N[C@@H](CC(=O)O)C(=O)NCCOCCOCCOCCC(=O)O)[C@@H](C)CC)NC(=O)[C@H]([C@@H](C)CC)NC(=O)[C@@H]2C[C@@H]3CCCC[C@@H]3N2C(=O)[C@@H]2CCCN2C(=O)[C@H](CC(C)C)NC(=O)[C@H](CO)NC(=O)[C@H](CCCNC(=N)N)NC(=O)[C@H](CO)NC1=O
# B3: ((N-Me)G)-IC+SRS-((tBu)A)-PPI-(Pen)+IP-(Orn)-D-OH (peptide)
# peptide: [Sar]ICSRS[tBuAla]PPI[Pen]IP[Orn]D-OH
# modifications: disulfide 3-11; N-terminus assumed
# SMILES: CC[C@H](C)[C@H](NC(=O)CNC)C(=O)N[C@H]1CSSC(C)(C)[C@@H](C(=O)N[C@H](C(=O)N2CCC[C@H]2C(=O)N[C@@H](CCCN)C(=O)N[C@@H](CC(=O)O)C(=O)O)[C@@H](C)CC)NC(=O)[C@H]([C@@H](C)CC)NC(=O)[C@@H]2CCCN2C(=O)[C@@H]2CCCN2C(=O)[C@H](CC(C)(C)C)NC(=O)[C@H](CO)NC(=O)[C@H](CCCNC(=N)N)NC(=O)[C@H](CO)NC1=O
# B4: ((N-Me)G)-IC+SRSLP-(Oic)-I-(Pen)+IP-((3-Carboxy)F)-OH (peptide)
# peptide: [Sar]ICSRSLP[Oic]I[Pen]IP[Phe(3-COOH)]-OH
# modifications: disulfide 3-11; N-terminus assumed
# SMILES: CC[C@H](C)[C@H](NC(=O)CNC)C(=O)N[C@H]1CSSC(C)(C)[C@@H](C(=O)N[C@H](C(=O)N2CCC[C@H]2C(=O)N[C@@H](Cc2cccc(C(=O)O)c2)C(=O)O)[C@@H](C)CC)NC(=O)[C@H]([C@@H](C)CC)NC(=O)[C@@H]2C[C@@H]3CCCC[C@@H]3N2C(=O)[C@@H]2CCCN2C(=O)[C@H](CC(C)C)NC(=O)[C@H](CO)NC(=O)[C@H](CCCNC(=N)N)NC(=O)[C@H](CO)NC1=O
# B5: ((R)-Piperidine-3-Carboxylic Acid)-IC+SRSLP-(Oic)-I-(Pen)+IPD-OH (peptide)
# peptide: [Nip(3R)]ICSRSLP[Oic]I[Pen]IPD-OH
# modifications: disulfide 3-11; N-terminus assumed
# SMILES: CC[C@H](C)[C@H](NC(=O)[C@@H]1CCCNC1)C(=O)N[C@H]1CSSC(C)(C)[C@@H](C(=O)N[C@H](C(=O)N2CCC[C@H]2C(=O)N[C@@H](CC(=O)O)C(=O)O)[C@@H](C)CC)NC(=O)[C@H]([C@@H](C)CC)NC(=O)[C@@H]2C[C@@H]3CCCC[C@@H]3N2C(=O)[C@@H]2CCCN2C(=O)[C@H](CC(C)C)NC(=O)[C@H](CO)NC(=O)[C@H](CCCNC(=N)N)NC(=O)[C@H](CO)NC1=O
# B6: ((N-Me)G)-IC+SRS-((tBu)A)-PPI-(Pen)+IP-(PEG3(16atoms))-OH (peptide)
# peptide: [Sar]ICSRS[tBuAla]PPI[Pen]IP[PEG4]-OH
# modifications: disulfide 3-11; N-terminus assumed
# SMILES: CC[C@H](C)[C@H](NC(=O)CNC)C(=O)N[C@H]1CSSC(C)(C)[C@@H](C(=O)N[C@H](C(=O)N2CCC[C@H]2C(=O)NCCOCCOCCOCCOCCC(=O)O)[C@@H](C)CC)NC(=O)[C@H]([C@@H](C)CC)NC(=O)[C@@H]2CCCN2C(=O)[C@@H]2CCCN2C(=O)[C@H](CC(C)(C)C)NC(=O)[C@H](CO)NC(=O)[C@H](CCCNC(=N)N)NC(=O)[C@H](CO)NC1=O
# Molecular target: Recombinant human MASP2 enzyme (fragment corresponding to amino acids 297-686, C-terminal His Tag) (human, UniProt O00187 297-686)
# Experiment: cell-based or functional assay
# Recombinant human MASP2 enzyme (fragment corresponding to amino acids 297-686, C-terminal His Tag), sequence (O00187 other isoform, or with tags, fused parts or gaps limits assumed): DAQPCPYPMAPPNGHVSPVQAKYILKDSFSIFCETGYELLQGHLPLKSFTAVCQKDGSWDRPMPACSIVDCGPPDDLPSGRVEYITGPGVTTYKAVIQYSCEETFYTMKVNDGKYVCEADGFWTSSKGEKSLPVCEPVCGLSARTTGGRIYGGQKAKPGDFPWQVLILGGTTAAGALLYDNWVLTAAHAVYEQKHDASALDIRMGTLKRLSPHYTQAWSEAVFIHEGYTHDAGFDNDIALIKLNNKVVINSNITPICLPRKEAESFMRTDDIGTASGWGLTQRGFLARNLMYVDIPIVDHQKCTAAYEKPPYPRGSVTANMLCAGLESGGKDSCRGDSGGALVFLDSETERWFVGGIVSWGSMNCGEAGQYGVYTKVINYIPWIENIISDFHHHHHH
row,human MASP2 IC50 [µM],Binder
1,0.048,B1
2,0.12,B2
3,0.032,B3
4,0.064,B4
5,0.11,B5
6,0.035,B6

# Molecular target: T1, Recombinant human MASP1 enzyme …
# Experiment: cell-based or functional assay
row,human MASP1 IC50 [µM],Binder
1,0.00235,B1
2,0.0055,B2
3,0.0038,B3
4,0.0054,B4
5,0.0052,B5
6,0.0021,B6
